Test results as given in article PMC8683613.

Tests used:
[1] = molecular target: oxygen-cleaved pyruvate formate-lyase mimic (cPFL, residues 1-733) (E. coli)
[2] = molecular target: truncated pyruvate formate-lyase (tPFL, residues 1-695) (E. coli)
[3] = molecular target: oxygen-cleaved pyruvate formate-lyase mimic (cPFL, residues 1-733) (E. coli); assay: ITC; YfiD variant in the syringe titrated into the PFL variant in the cell, matched buffer; MicroCal iTC200, 25 °C, 20 injections of 2.0 μl
[4] = molecular target: oxygen-cleaved pyruvate formate-lyase mimic (cPFL, residues 1-733) (E. coli); remark: listed apart in the source

Sequence of oxygen-cleaved pyruvate formate-lyase mimic (cPFL, residues 1-733) (E. coli) (P09373 2-734 limits assumed): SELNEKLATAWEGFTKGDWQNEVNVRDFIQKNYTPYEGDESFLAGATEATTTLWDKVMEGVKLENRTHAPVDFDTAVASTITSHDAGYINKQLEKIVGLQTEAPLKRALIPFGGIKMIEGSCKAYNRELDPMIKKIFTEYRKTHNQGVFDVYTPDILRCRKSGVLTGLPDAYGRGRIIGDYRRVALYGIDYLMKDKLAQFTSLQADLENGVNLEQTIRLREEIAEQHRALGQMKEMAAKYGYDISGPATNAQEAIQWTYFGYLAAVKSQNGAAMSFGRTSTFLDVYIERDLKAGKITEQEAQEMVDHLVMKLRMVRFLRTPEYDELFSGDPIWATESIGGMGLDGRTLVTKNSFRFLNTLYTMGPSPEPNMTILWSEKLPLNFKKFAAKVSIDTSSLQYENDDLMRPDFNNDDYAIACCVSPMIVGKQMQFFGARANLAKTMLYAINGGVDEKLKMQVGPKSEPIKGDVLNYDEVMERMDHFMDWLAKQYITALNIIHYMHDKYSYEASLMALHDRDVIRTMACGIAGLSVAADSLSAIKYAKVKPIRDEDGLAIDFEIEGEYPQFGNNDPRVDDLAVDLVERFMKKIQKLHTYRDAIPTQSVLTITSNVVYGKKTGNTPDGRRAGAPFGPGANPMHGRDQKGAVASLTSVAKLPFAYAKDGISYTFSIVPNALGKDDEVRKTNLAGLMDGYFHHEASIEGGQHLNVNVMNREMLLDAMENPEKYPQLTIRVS
Sequence of truncated pyruvate formate-lyase (tPFL, residues 1-695) (E. coli) (P09373 1-695): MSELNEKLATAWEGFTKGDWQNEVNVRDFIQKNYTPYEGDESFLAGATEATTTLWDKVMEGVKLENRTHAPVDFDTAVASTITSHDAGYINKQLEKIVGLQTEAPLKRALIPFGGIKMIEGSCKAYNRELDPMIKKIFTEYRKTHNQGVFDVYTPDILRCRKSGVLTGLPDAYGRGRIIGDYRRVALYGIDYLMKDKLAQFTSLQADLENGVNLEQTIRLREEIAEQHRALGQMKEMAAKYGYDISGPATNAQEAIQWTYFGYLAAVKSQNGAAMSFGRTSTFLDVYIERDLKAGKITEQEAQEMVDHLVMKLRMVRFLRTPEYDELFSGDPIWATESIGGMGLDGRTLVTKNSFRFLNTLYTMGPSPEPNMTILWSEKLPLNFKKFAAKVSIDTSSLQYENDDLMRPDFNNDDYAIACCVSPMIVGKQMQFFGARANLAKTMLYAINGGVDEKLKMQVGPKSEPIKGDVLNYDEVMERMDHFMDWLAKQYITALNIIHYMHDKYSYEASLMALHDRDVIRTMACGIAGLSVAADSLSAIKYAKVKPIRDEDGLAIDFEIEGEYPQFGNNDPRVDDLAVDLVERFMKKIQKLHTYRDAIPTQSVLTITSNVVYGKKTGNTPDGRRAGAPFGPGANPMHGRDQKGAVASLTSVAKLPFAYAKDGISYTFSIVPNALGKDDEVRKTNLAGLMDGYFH

| Substance | glycyl radical installed by PFL-AE on the 1:1 cPFL:YfiD mixture (200 μM each), quantified by EPR; no detectable radical for the individual components [1] [µM] | glycyl radical installed by PFL-AE on the 1:1 tPFL:YfiD mixture (200 μM each), quantified by EPR [2] [µM] | Kd [3] [µM] | glycyl radical installed by PFL-AE on the 1:1 cPFL:truncYfiD mixture (200 μM each), quantified by EPR [1] [µM] | glycyl radical installed by PFL-AE on the 1:1 tPFL:truncYfiD mixture (200 μM each), quantified by EPR [2] [µM] | apparent kcat of acetyl-CoA production by the activated cPFL:truncYfiD complex (coupled assay, 21 °C, per glycyl radical) [4] [s⁻¹] |
| --- | --- | --- | --- | --- | --- | --- |
| YfiD (spare part protein, autonomous glycyl radical cofactor) (from UniProt P68066 1-127) (natural protein) | 15.9 | 0.5 | 14 |  |  |  |
| truncated YfiD (truncYfiD, residues 61-127) (from UniProt P68066 61-127) (domain or fragment) |  |  |  | 4.1 | 2.7 | 186 |
